Consider twelve molecules from patent publication US20140072563A1 (Regeneron, published 2014).

Substitutions are numbered along the chain they refer to. Names may count otherwise.

The term Kd denotes the free concentration of one partner at which half of the binding sites on the other are occupied at equilibrium, for simple one-to-one binding. A low value points to tighter binding. As a reminder, the koff is the rate constant with which the complex falls apart. A high value points to a short-lived complex. In general, kon refers to the rate constant with which the complex forms. High values mean faster complex formation, low ones slower complex formation.

First the molecules themselves.
T1: hErbB3.mFc (soluble dimeric human ErbB3 extracellular domain fused to mouse Fc) (human)
T1 construct: called dimeric
T1 chain: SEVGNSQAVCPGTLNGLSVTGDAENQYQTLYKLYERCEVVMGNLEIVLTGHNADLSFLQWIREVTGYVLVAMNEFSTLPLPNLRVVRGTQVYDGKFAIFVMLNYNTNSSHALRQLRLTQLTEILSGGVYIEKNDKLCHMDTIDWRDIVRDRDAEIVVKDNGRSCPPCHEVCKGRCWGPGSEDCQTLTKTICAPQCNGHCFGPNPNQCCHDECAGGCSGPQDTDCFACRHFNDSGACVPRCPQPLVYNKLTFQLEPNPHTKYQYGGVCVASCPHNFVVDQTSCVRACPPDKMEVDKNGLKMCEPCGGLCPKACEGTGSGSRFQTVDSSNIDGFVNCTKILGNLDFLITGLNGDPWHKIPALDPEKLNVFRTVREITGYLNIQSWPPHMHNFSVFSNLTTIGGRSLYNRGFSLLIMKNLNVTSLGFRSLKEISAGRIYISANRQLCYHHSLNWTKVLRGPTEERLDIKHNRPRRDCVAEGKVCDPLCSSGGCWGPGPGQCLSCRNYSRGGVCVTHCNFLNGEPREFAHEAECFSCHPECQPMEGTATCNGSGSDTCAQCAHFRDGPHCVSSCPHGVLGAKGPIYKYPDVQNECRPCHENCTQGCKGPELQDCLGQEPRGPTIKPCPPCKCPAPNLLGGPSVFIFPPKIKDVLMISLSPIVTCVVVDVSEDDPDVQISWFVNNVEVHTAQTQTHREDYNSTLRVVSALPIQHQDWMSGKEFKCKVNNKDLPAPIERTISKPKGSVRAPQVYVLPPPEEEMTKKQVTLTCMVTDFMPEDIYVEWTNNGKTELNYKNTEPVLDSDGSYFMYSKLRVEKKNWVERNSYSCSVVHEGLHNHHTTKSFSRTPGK

B1: H4H2111P (antibody, V domains shown)
VH: QVQLVESGGGVVQPGRSLRLSCAASGFTFNNYGMHWVRQAPGKGLAWVAVMWYSESHKYYADSVKGRFTISRDNSKNTLYLEMNSLRVEDTAIYYCARDLGDPDAFDIWGQGTMVTVSS
VL: DIQLTQSPSFLSASVGDRVTITCWASQGISSYLAWYQQKPGKAPKLLIYGASTLQSGVPSRFSGSGSGTEFTLTISSLQPEDFATYYCQQLNSYPLTFGGGTKVEIKR
notes: Fully human, human IgG4 Fc (H4H prefix)
B2: H4H2140P (antibody, V domains shown)
VH: EVQLVESGGGLVQPGGSLRLSCAASGFSVSYYDMHWVRQVTGKGLEWVSAIGPAGDTYYPGSVKGRFTISREDATNSLYLQIHSLGAGDTAVYYCAREGAIAARPDDYYGMDVWGQGTTVTVSS
VL: B1 VL with G28D, G50A
notes: as for B1
B3: H4H2143P (antibody, V domains shown)
VH: EVQLVESGGGLVQPGRSLRLSCAASGFTFGDYAMHWVRQAPGKGLEWVSGINLNSGTIGYADSVKGRFTISRDNAKNSLYLQMNSLRAEDTAFYYCAKDIDGYYHYAMDVWGQGTTVTVSS
VL: B1 VL with I2V, Q3V, L4M, G50D, Q55E, S77N, L91V
notes: as for B1
B4: H4H2147P (antibody, V domains shown)
VH: QVQLVESGGGLVKPGGSLRLSCAASGFTFSDFNMGWIRQAPGKGLEWVSHISGSGNVIYYADSVKGRFAISRDNGKNSLYLQVNSLRAEDTAVYYCARDIGDSDAFDIWGQGTMVTVSS
VL: B1 VL with G28D, Q55E, F83V, S93T
notes: as for B1
B5: H4H2138P (antibody, V domains shown)
VH: QVQLQESGPGLVKPSQTLSLTCTVSGGSINSGGYYWSWIRQHPGKGLEWIGYISYSGNTNYNPSLKSRVTISVDTSKNQFSLTLTSVTAADTAVYYCARDSDVDTGLVDGFDVWGQGTMVTVSS
VL: DIVMTQSPSSVSASVGDRVTITCRASQGVSSWLAWYQQKPGKAPKLLIYTTSSLQSGVPSRFSGSGSGTDFTLTISSLQPEDFATYYCQQSNSFPFTFGPGTKVEIK
notes: as for B1
B6: H4H2132P (antibody, V domains shown)
VH: EVQLVESGGGVVRPGGSLRLSCAASGFTFDDYGMSWVRQFPGKGLEWVSSIDGNGGNTGYSDSVKGRFTISRDNAKNSLHLQMNSLRAEDTALYHCARDPDYDSVWGNYRPFDYWGQGTLVTVSS
VL: DIVMTQSPDSLAVSLGERATINCKSSQSVLSSSNDNNYLAWFQQKPGQPPNLLIYWASTRDSGVPDRFSASGSGTDFTLAISSLQAEDVAVYYCHQYYSSPPTFGQGTKVEIKR
notes: as for B1
B7: H4H2108P (antibody, V domains shown)
VH: EVQLLESGGDLVQPGGSLRLSCATSGFSFSSDAMNWVRQAPGKGLEWVSGISGSGGNTYYADSVKGRFTISRDISKSTLSLQMNSLRAEDTAVYYCAKEGTNMVRGVVMEDNGMDVWGQGTTVTVSA
VL: DIQMTQSPSSVSASVGDRVTITCRASQGISDYLAWYQQKPGKAPKLLIYAASSLQSGVPSRFSGRGSGTDFTLTISTLQPEDFATYYCQQANSFPLTFGGGTKVDIKR
notes: as for B1
B8: H4H2148P (antibody, V domains shown)
VH: EVQLVESGGGLVHPGRSLRLSCAASGFTFDDYAMHWVRQSPGKGLEWVSGISWNSVIKHSTDSVRGRFTISRDNAKNSLYLQMNSLKPEDTAFYYCAKDEDDWNYLDYWGQGTLVTVSS
VL: DIQMTQSPSSVSASVGDRVTITCRASQDINSWLAWYQQKPGKAPKLLIYTSSNLQSGVPSRFSGSGSGTDFTLTISSLQPEDFATYYCQQSDSFPFTFGPGTKVDIKR
notes: as for B1
B9: H4H2151P (antibody, V domains shown)
VH: QVQLVESGGGVVQPGRSLRLSCAASGFTFSNYGMHWVRQAPGKGLEWVARIWYDGSNKYYADSVKGRFTISRDSSKNTLYLQMNSLRAEDTAVYYCAREGEQNLDYYPLDVWGQGTTVTVSS
VL: DIVMTQSPSSLSASVGDRVTITCRASQDIRNDLGWYQQKPGKAPKLLIYAASSLQTGVPSRFSGSVSGTDFTLTISSLQPEDFATYYCLQDYTYPLTFGGGTKVEIK
notes: as for B1
B10: H4H2153P (antibody, V domains shown)
VH: QVQLVQSGAEVKKPGASVKVSCKASGYTFTRYGISWVRQAPGLGLEWMGWISAYDGYTNFAQKFQGRFTMTTDTSTNTAYMELRGLRSDDTAVYYCAREEEDAAFDIWGQGTMVTVSS
VL: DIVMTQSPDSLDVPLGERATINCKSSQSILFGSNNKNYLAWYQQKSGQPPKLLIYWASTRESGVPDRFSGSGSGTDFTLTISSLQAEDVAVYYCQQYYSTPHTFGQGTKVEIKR
notes: as for B1
B11: H4H2114P (antibody, V domains shown)
VH: QVQLVESGGGVVQPGRSLRLSCAASGFTFSSYGMHWVRQAPGKGLEWVAGMSYDGSSKYYEDSVKGRFTISRDNSKNTLNLQMNSLRVEDTAVYYCAKERDYVEYVDSYYGMDVWGQGTTVTVSA
VL: AIQMTQSPSSLSASVGDRVTITCRASQGIRNDLGWYQQKPGKAPKVLIYAASSLQSGVPSRFSGSGSGTVFTLTISSLQPEDFATYYCLQDYNYPLTFGGGTKVEIKR
notes: as for B1
B12: H4H2146P (antibody, V domains shown)
VH: QVQLVESGGGVVQPGRSLRLSCAASGFTFINYGIHWVRQGPGKGLEWVAVIWYDGSNEWYADSVKGRFTISRDNSKNTVYLEMNKLRAEDTAVYYCAREEEDYGMDVWGQGTTVTVSS
VL: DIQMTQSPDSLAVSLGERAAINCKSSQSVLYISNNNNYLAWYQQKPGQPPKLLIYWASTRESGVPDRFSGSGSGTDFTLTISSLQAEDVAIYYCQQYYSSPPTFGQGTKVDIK
notes: as for B1

For one assay, the target named is hErbB3.mmh (soluble monomeric human ErbB3 extracellular domain with C-terminal myc-myc-hexahistidine tag) (human, UniProt P21860 20-642). The experiment in a line: SPR (Biacore), 25 C, mAb capture format. The method, then:
(§1) (Tables 2-4). Measurements were conducted on a Biacore 2000 or T100 instrument. […] Kinetic association (kₐ) and dissociation (kd) rate constants were determined by processing and fitting the data to a 1:1 binding model using Scrubber 2.0 curve fitting software.
On the technique in general: SPR reads the build-up and loss of mass on a sensor chip optically.
Take B1: the Kd turned out to be 53.1 pM, the T½ stood at 1.52 h, the koff came out at 0.000118 s⁻¹ and the on-rate constant (kon) is 2.21e+06 M⁻¹ s⁻¹.
B2 came in with a dissociation constant Kd of 19.8 pM, a T½ of 5.43 h, a koff of 3.27e-05 s⁻¹ and a kon of 1.66e+06 M⁻¹ s⁻¹.
Turning to B3, the Kd turned out to be 53.1 pM, the T½ was found to be 1.82 h, the off-rate constant (koff) came out at 9.73e-05 s⁻¹ and the kon was determined as 1.83e+06 M⁻¹ s⁻¹.
In turn, B4 gave a Kd of 43.8 pM, a T½ of 1.63 h, a koff of 0.000108 s⁻¹ and an on-rate constant (kon) of 2.47e+06 M⁻¹ s⁻¹.
Molecule B5 registered a dissociation constant Kd of 20.9 pM, a T½ of 3.55 h, an off-rate (koff) of 5.01e-05 s⁻¹ and a kon of 2.39e+06 M⁻¹ s⁻¹.
On to B6, for which the affinity, expressed as Kd, was 17.7 pM; the T½ is 4.65 h; the dissociation rate constant (koff) came out at 3.81e-05 s⁻¹; the kon came to 2.16e+06 M⁻¹ s⁻¹.
B7 gave a Kd of 41.8 pM, a T½ of 2.18 h, an off-rate (koff) of 8.13e-05 s⁻¹ and a kon of 1.95e+06 M⁻¹ s⁻¹.
The matching figures for B8: 8.71 pM, 5.12 h, 3.47e-05 s⁻¹ and 3.98e+06 M⁻¹ s⁻¹.
Molecule B9 displayed a dissociation constant Kd of 9.42 pM, a T½ of 6.2 h, a koff of 2.86e-05 s⁻¹ and an on-rate (kon) of 3.04e+06 M⁻¹ s⁻¹.
The matching figures for B10: 11.7 pM, 5.18 h, 3.43e-05 s⁻¹ and 2.94e+06 M⁻¹ s⁻¹.
Molecule B11 showed a Kd of 106 pM, a T½ of 1.8 h, a koff of 9.88e-05 s⁻¹ and an association rate constant (kon) of 929000 M⁻¹ s⁻¹.
B12 gave a Kd of 12.4 pM, a T½ of 5.13 h, a koff of 3.46e-05 s⁻¹ and a kon of 2.79e+06 M⁻¹ s⁻¹.

The target in a further assay is T1, hErbB3.mFc (soluble dimeric human ErbB3 …). Put plainly: SPR (Biacore), 25 C, mAb capture format. The method, then: as §1
Take B1: binding was characterised by a dissociation constant (Kd) of 2.49 pM, the T½ came out at 20.4 h, the off-rate (koff) was 8.69e-06 s⁻¹ and the kon worked out at 3.5e+06 M⁻¹ s⁻¹.
For B2, the Kd stood at 0.393 pM, the T½ came to 180 h, the koff was determined as 9.86e-07 s⁻¹ and the kon stood at 2.51e+06 M⁻¹ s⁻¹.
The matching figures for B3: 1.75 pM, 38.4 h, 4.63e-06 s⁻¹ and 2.86e+06 M⁻¹ s⁻¹.
The molecule B4 showed a Kd of 1.5 pM, a T½ of 38.8 h, a koff of 4.58e-06 s⁻¹ and a kon of 3.33e+06 M⁻¹ s⁻¹.
B5 came in with an equilibrium dissociation constant (Kd) of 1.47 pM, a T½ of 32.5 h, a koff of 5.46e-06 s⁻¹ and a kon of 3.71e+06 M⁻¹ s⁻¹.
The matching figures for B6: 0.958 pM, 53 h, 3.35e-06 s⁻¹ and 3.49e+06 M⁻¹ s⁻¹.
Turning to B7, the equilibrium dissociation constant (Kd) worked out at 1.46 pM, the T½ amounted to 41 h, the koff came to 4.33e-06 s⁻¹ and the kon was found to be 2.96e+06 M⁻¹ s⁻¹.
The corresponding values for B8 are 0.295 pM, 102 h, 1.74e-06 s⁻¹ and 5.91e+06 M⁻¹ s⁻¹.
With B9, binding was put at a Kd of 0.213 pM, the T½ came out at 186 h, the off-rate (koff) came out at 9.52e-07 s⁻¹ and the kon was 4.48e+06 M⁻¹ s⁻¹.
As for B10, the Kd turned out to be 0.337 pM, the T½ was 143 h, the off-rate constant (koff) came out at 1.24e-06 s⁻¹ and the kon turned out to be 3.67e+06 M⁻¹ s⁻¹.
B11 gave a Kd of 5.41 pM, a T½ of 22.2 h, a koff of 7.98e-06 s⁻¹ and a kon of 1.48e+06 M⁻¹ s⁻¹.
B12 showed a Kd of 0.435 pM, a T½ of 89.9 h, an off-rate (koff) of 1.98e-06 s⁻¹ and a kon of 4.54e+06 M⁻¹ s⁻¹.
